# From the supplement of paper PMC12042874
# ± gives the uncertainty stated by the source.
# Test: amyloid nucleation score (Sup35N fusion, yeast selection) (log enrichment); library NNK3; higher = more nucleation; inactive = no reads after selection
# Summary of the method: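 Using DiMSum, nucleation scores were taken as the log enrichment of output over input reads, centred on the mode score of non-aggregating sequences. The input and output reads came from Illumina sequencing of plasmid inserts, with sequences under 100 input reads excluded. The yeast were psi-negative, expressed Sup35N fused to peptides of 20 random codons, were induced with 100 μM copper sulfate for 24 hours, and were grown 7 days at 30°C on medium lacking adenine and uracil.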
row,Substance,amyloid nucleation score
1,NSRSKNWGLVFPSNRGLVS,inactive
2,LGQFQCQE,inactive
3,VRSRMSNWFNHPTVFDRLWA,0.547 ± 0.2
4,CRMAKRLAVRTSLRRMFSES,inactive
5,GTKWSATITGWV,inactive
6,MFDLYN,inactive
7,WQHSRSLDTSACCPT,inactive
8,AWISGHVRVKLSFRLTFFLK,inactive
9,ACCRSNDYDSYTPFDVVNHW,inactive
10,TPRFMVGAVATEGAHIFLRV,inactive
11,KVCFCSLL,2.94 ± 0.075
12,QWKVLLRACHRLEDALCCIS,inactive
13,FASRIWSSTITSCHLLSGSL,inactive
14,EFKQSSWY,inactive
15,VSDYYDKYGLYFCWFWDGYK,inactive
16,FDSKVWSAQRVRSTRLLSLG,inactive
17,NGGAHSLGK,inactive
18,RRHLITSVHQTLIVVGFDPR,inactive
19,RSGKVSFFIGYNVVGLMRFR,inactive
20,ILKKRFRMVPLK,inactive
21,LNTNWCSSK,inactive
22,PLGVRQQWEGSQVDPCGLRA,inactive
23,LTHRAVGLSNVNTPPSFCMR,0.842 ± 0.2

row,Substance,amyloid nucleation score
1,FYMASMCCWF,inactive
2,IQRVGTKGDVISTFCNRQQL,inactive
3,GLNDHSLI,inactive
4,LAINIFWLEDRCSPIGCNAG,inactive
5,DGARLCSAAMLAGQGLDEDG,inactive
6,FMGTGHSFGSQNPVSLILKS,inactive
7,ERVRRTV,inactive
8,YYGVDHLLNWIPFACTARLG,inactive
9,ASDNWESRPSRSSDKSGVIG,inactive
10,NFKLLLTSPWYATV,inactive
11,LHESRVAGSNQLSRRDHERW,inactive
12,KRISDRIFCFCLKHGVGLFG,inactive
13,SKAMLTVA,inactive
14,GVMYQACWSLASTYFTVNSS,inactive
15,RYTFVGT,-0.408 ± 0.68
16,SNLCGFCRSHVIKVMLLLSA,inactive
17,KSGIV,0.633 ± 0.19
18,RSSLLSRVLSEITHSWQLCA,inactive
19,FDACRFHVHLRYLFNNRYMG,inactive
20,HGRAYSRNT,inactive
21,NTSISGSSM,inactive
22,LRGVGDRIGNTSGISGLWPG,0.759 ± 0.19
23,VNLEYYV,inactive

row,Substance,amyloid nucleation score
1,MVVSVQIVFVQVTDMVYHVN,0.393 ± 0.24
2,CVIPRQIYWWCYRSTGRLIL,inactive
3,RSDVYCWDNYRLEGSGQSSL,inactive
4,ACSRRERY,inactive
5,CFVYRTLISNLFSIWHSLQF,inactive
6,FDLVNWYFQRNIVLRQSCCY,inactive
7,FSDCQLESGCCHRSRDLIGL,inactive
8,GVGLIE,inactive
9,FALCFKRQIGRVSRVVCHVY,inactive
10,LNMARDYFVFQSPADPGCLV,inactive
11,FRRLSFMVVFGERKGVVSLG,inactive
12,KSVNLHA,inactive
13,NVRGNNLSRM,inactive
14,VLTRTTRLTHSTTSICLLVL,inactive
15,WVCIW,0.178 ± 0.72
16,CYHAFRCSGLARACVENINW,inactive
17,TPKWILMERNTSRGWATSA,inactive
18,NSTFRFTVTRFCIAPSEYIG,0.509 ± 0.25
19,KISLISTNCLYMVFPYRYSR,2.13 ± 0.06
20,SQMSPSNDMWLALNV,inactive
21,FIYAC,inactive
22,NWWFPTFVRVFIYEVGLVLK,inactive
23,MEMLVVIRIARRMYDGGCLS,-0.423 ± 0.45

row,Substance,amyloid nucleation score
1,SALKGLTRELSVRVY,inactive
2,RRSSRSRRHAKRRRAIVRCG,inactive
3,IKPSAS,inactive
4,DSRLE,inactive
5,RVYHLIWFFYYLYNGHFISS,inactive
6,FTSDGEYNRVLPGRSQGASF,-0.92 ± 2.5
7,TFSYGSFLRSYLLMC,inactive
8,YTVGCSYMVWVVFNFFYFSE,1 ± 0.14
9,PRSEVTRTLYIFSVWHQMRI,inactive
10,FCIEPR,inactive
11,LYLVGIMYASTQYTWRQLIN,inactive
12,VWLILRFMWAVVRTNRSNLD,inactive
13,EPGDRQARKSFRLSFWAQEV,0.422 ± 0.21
14,NTDFYVVVDRIMFRLLHGFK,inactive
15,MRTLYFPKCMTRLKMHVSSI,inactive
16,MWRPSHTYCLSNGKVECREC,inactive
17,FLHPLSLDSNFLNSVCHFKK,inactive
18,VCWSYNSNL,inactive
19,SMSPFRKFLTFWNMGPKRTL,-1.06 ± 2.4
20,VPFVGLLSLALAFYSIKNSN,0.921 ± 0.23
21,TVCVWSVKVMP,-0.492 ± 0.66
22,DLHLLYKYILFAKLLV,inactive
23,TMVICLSLLRNMILHF,inactive

row,Substance,amyloid nucleation score
1,ICDDMVGVC,inactive
2,AENLVWRVMAYSARSTADYG,inactive
3,DMSHMIEICFVTNYTKGYVT,inactive
4,VIMADA,inactive
5,NRPLNIAAVLY,inactive
6,GLVCWTG,inactive
7,YYVVGQPAASQK,inactive
8,NSVRLFKNFQWWAFSRHSRL,inactive
9,LREPRGGSWRRLDCFKCRLG,inactive
10,MGVSWIII,inactive
11,NYFGLWGCHTCITCYPVTLV,1.29 ± 0.13
12,YQNGLARWTWKYRNVINVLS,inactive
13,KKYVVFNGCSPYM,inactive
14,THRFGMVR,inactive
15,FLRFSAVDVSNGGNSMLL,inactive
16,EGIGDVCCKTPEYRSFGWMR,-1.13 ± 2.4
17,WVCTYLTRFGRITGALRMDV,inactive
18,GVSRLETGNFAASPMMHYKG,inactive
19,WWVRQNVRWVLACVDFSTFS,inactive
20,GGAKVLTV,inactive
21,ANESMWYSLMLTVFVLAGCM,inactive
22,SMGKCRFRCVNIIFYWRWIH,1.25 ± 0.14
23,VVDFSTYWY,inactive

row,Substance,amyloid nucleation score
1,MRILKHMFQVDWLVNAMDAE,inactive
2,SRSCNVLSEWRGINVNGWGN,-0.176 ± 1.1
3,NWLDWYYPYLKMVIATGFND,inactive
4,KEYGLFLYLNFFLDWFNFIN,inactive
5,DIFCCWTDISDLF,inactive
6,GIAIFTMDCGV,inactive
7,SFGFALLGVVMRITAVRYPY,inactive
8,YLVTWWMLSHKLTHMCFSGR,-0.024 ± 0.69
9,MTSSVP,inactive
10,RSIVNSRALGLAADRRLEFS,inactive
11,QLYSHNRYTLGYTMLSRFVS,inactive
12,PWSHSS,inactive
13,NCIYLVLN,inactive
14,QRKVSWHAGYSA,inactive
15,MMLYALDRVAVTLGKSMLPA,inactive
16,ISLGRCNNDHWRILVGTWSA,inactive
17,YFRSK,inactive
18,RYADHAYLVPKFGQTEQENV,inactive
19,YSVLLLLDSYGAWSGAGGE,inactive
20,FCRSVLTLKKKLMFYTLRHC,inactive
21,GVEIRYLQQ,inactive
22,QLVVRCPCYNETVG,inactive
23,TLFADNAVQIVLERSLRGCG,inactive

row,Substance,amyloid nucleation score
1,EWKVLLPNLLYPSYYAQNR,inactive
2,YIYICLVFMSRCTKLYIELG,inactive
3,TKFNG,0.709 ± 0.19
4,MGKVARRA,inactive
5,LGASRGMFVKNLLIMASHSR,inactive
6,SYNILHDVSQLGTRQPPLE,inactive
7,LMSFCHPDPIDFSVTGLCCR,-0.208 ± 0.39
8,LSVNYKLGQYRTLWFHHSLG,inactive
9,MSFGKSCEVKGGL,inactive
10,ASFYWECMYVHGDVFLCVWY,1.79 ± 0.1
11,SFQSLTM,inactive
12,KGMDMVI,inactive
13,SHLPCLFCYV,inactive
14,NPSQSRSASWQHSYHRISGL,inactive
15,KLPMRVGLM,inactive
16,LYLLSKRFHNLYLLDKVLKY,inactive
17,GMHCFIEPLSRVFGSNCGNY,inactive
18,VDSSGLV,inactive
19,IMFSILSVMML,1.74 ± 0.11
20,SYFVAAVYYQDERNNGFCGQ,inactive
21,FCEGYFWCVI,inactive
22,WLIFELIVSELSTRHHKALD,inactive
23,DAAQCRSDNYALFELNSAHC,inactive
